The assay concerns the target T1, PCPE1 (Homo sapiens (Human), UniProt Q15113).
T1 chain: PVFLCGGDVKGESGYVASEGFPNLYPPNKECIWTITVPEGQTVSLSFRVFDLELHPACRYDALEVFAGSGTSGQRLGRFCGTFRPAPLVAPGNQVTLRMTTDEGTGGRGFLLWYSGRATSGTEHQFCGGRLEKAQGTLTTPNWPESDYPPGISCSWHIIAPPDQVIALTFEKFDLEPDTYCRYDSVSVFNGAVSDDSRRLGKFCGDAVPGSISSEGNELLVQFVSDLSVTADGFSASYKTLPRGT
The assay can be described thus: Ki app, fluorogenic peptide.

This note sets out measurements from PMC10696041 (2023).

B1: BMP1 (protein)
chain: AATSRPERVWPDGVIPFVIGGNFTGSQRAVFRQAMRHWEKHTCVTFLERTDEDSYIVFTYRPCGCCSYVGRRGGGPQAISIGKNCDKFGIVVHELGHVVGFWHEHTRPDRDRHVSIVRENIQPGQEYNFLKMEPQEVESLGETYDFDSIMHYARNTFSRGIFLDTIVPKYEVNGVKPPIGQRTRLSKGDIAQARKLYKCPACGETLQDSTGNFSSPEYPNGYSAHMHCVWRISVTPGEKIILNFTSLDLYRSRLCWYDYVEVRDGFWRKAPLRGRFCGSKLPEPIVSTDSRLWVEFRSSSNWVGKGFFAVYEAICGGDVKKDYGHIQSPNYPDDYRPSKVCIWRIQVSEGFHVGLTFQSFEIERHDSCAYDYLEVRDGHSESSTLIGRYCGYEKPDDIKSTSSRLWLKFVSDGSINKAGFAVNFFK
Consider B1, for which the “apparent Ki” value is more than 150 nM.
